The target in test [1] is T1, CD25-His recombinant protein (human, UniProt P01589 22-240).
T1 chain: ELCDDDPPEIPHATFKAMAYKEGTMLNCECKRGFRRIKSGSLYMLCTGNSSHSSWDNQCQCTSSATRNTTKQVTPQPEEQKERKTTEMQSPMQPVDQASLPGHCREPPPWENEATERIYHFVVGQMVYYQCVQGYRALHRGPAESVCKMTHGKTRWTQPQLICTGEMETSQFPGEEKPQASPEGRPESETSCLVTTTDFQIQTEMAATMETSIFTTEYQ
The test can be described thus: ELISA.

In test [2] the target is T2, CD25 on the CHO-CD25-overexpressing cell line (human, UniProt P01589 22-272).
T2 chain: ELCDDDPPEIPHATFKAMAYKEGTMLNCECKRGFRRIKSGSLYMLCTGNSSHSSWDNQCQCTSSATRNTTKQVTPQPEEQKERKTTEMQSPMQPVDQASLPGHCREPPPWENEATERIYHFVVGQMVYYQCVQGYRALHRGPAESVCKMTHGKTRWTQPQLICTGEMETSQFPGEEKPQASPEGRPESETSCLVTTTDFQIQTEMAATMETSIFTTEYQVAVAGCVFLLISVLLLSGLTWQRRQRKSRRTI
The test can be described thus: FACS. A general note: In flow cytometry, cells or beads pass a laser one at a time.

For test [3], the target named is T3, CD25-His recombinant protein (human, UniProt P01589 22-240, limits assumed).
T3 construct: Recombinant antigen made by the applicant; also called CD25-His antigen; CD25 antigen; not shown: His tag
T3 sequence (looked up): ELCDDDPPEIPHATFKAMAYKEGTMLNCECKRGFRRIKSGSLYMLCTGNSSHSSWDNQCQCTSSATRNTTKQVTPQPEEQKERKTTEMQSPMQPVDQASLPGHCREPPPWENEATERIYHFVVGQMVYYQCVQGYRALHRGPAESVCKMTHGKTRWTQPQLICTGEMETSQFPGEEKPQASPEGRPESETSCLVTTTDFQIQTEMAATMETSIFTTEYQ
The test can be described thus: ELISA on CD25 antigen, transfection supernatant 5 µL. As to the method:
The CD25-His protein was coated on a 96-well microplate. After the candidate antibodies were transiently transfected into 293F cells for 48 hours, the supernatant was collected and ELISA detection was performed.

Test [4] has as its target T4, CD25 on the CHO-CD25-overexpressing cell line (human, UniProt P01589 22-272).
T4 sequence (looked up): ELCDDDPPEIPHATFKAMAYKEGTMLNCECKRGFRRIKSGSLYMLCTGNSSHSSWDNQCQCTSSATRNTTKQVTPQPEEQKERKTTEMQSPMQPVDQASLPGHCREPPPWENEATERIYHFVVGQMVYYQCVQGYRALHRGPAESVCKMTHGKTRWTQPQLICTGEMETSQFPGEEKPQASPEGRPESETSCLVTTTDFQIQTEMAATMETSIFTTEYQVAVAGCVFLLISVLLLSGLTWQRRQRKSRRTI
The test can be described thus: cell-based or functional assay.

In test [5] the target is T2, CD25 on the CHO-CD25-overexpressing …. The test can be described thus: FACS.
The target of test [6] is T1, CD25-His recombinant protein. The test can be described thus: BLI. For orientation: In BLI a coated tip is dipped into the sample, and binding shifts an interference pattern.
The target in test [7] is T3, CD25-His recombinant protein. The test can be described thus: ELISA on human CD25 antigen, antibody 10 µg/ml. A general note: ELISA stands for enzyme-linked immunosorbent assay.
Test [8] shares this target. The test can be described thus: ELISA on human CD25 antigen, antibody 0.016 µg/ml.

Like-named read-outs stand apart in the source and are kept apart here.

B1: B04 (VHH)
VHH: QVQLVESGGGLVQPGGSLRLSCATSGFTLDYYAIGWFRQAPGKEREGVSCISSSDGTTAYADSVKGRFTISTDNARNTVYLQMNSLKPEDTAVYYCAADLGYYCADNVRYAGSLYDYWGQGTQVTVSS
The term EC50 denotes the concentration at which the effect is half-maximal. With B1, the EC50 in test [1] worked out at 0.164 µg/mL; in test [2], 7.02 µg/mL.

B2: E08 (VHH)
VHH: AVQLVESGGGLVQPGGSLRLSCAASGFTFSSYPMGWYRQAPGEECELVAGITSAGGSTNYADSVKGRFTISRDNAKNTVYLQMNSLKPEDTAVYYCNTDPRYYTDSRGPCSWGQGTQVTVSS
As to B2, the EC50 stood at 0.00875 µg/mL in test [1] and 1.14 µg/mL in test [2].

B3: A11 (VHH)
VHH: DVQLVESGGGLVQPGGSLRLSCAASGFTFSSYAMSWYRQAPGKERELVAYITTSPGYTTYTDSVKGRFTISRDNAKNTVYLQMNSLKPDDTAVYYCNAWRGAPRGDYWGQGTQVTVSS
On to B3, for which the EC50 in test [1] came out at 0.0128 µg/mL; in test [2] it was 2.8 µg/mL.

B4: D01 (VHH)
VHH: QVQLVESGGGLAQPGGSLRLSCAASGFTFSNFAVSWARQVAGEGFEWVSGVYSDGDTYYADSVKDRFIISRDNAKNTLYLQMNSLKPEDTALYYCGAARGRLCSSIMTCDYWGQGTQVTVSS
On to B4, for which the EC50 is 0.0261 µg/mL in test [1] and 1.27 µg/mL in test [2].

B5: B10 (VHH)
VHH: EVQLVESGGGLVQPGGSLRLSCAVFGVTLDSYAIGWFRQAPGKEREGVSCISTSDGRTWETDAVLGRFTISRDNAKNTVYLQMNDLKPEDTAVYYCGADGRDWCSAHVYSRYEYDYSGQGTQVTVSS
notes: Tested as transfection supernatant
As for B5, the “ELISA OD” value in test [3] came to 4.38.

B6: G10 (VHH)
VHH: DVQLVESGGGLAQPGGSLRLSCAASGFTFSNYAMNWLRQAPGKGLEWVSGIYSDSSGTYYADSVKGRFTISRDNAKNTLYLQMNSLKPEDTALYYCAKASNSGSYYPWDDDWGQGTQVTVSA
With B6, the EC50 in test [1] was 0.0193 µg/mL; in test [2], 1.88 µg/mL.

B7: A07-HM5 (VHH)
VHH: EVQLVESGGGLVQPGGSLRLSCAVSGFTLDYYAIGWFRQAPGKGLEGVSCISGSDGRTAYADSVKGRFTISKDNAKNTVYLQMNSLRAEDTAVYYCAADPGYYCAGEVRYAGSLYDYWGQGTLVTVSS
As a reminder, the Kd is the constant that tells how readily two partners part at equilibrium. In the case of B7, in test [4], the “ADCC EC50” value turned out to be 0.0074 µg/mL. A half-maximal response in test [5] (EC50) required 0.632 µg/mL. The Kd in test [6] was 9.62 nM.

B8: clone A07 (VHH)
VHH: EVQLVESGGGLAQPGGSLRLSCAVSGFTLDYYAIGWFRQAPGKEREGVSCISGSDGRTAYTDSVKGRFTISKDNAKNTVYLQMNSLKPEDTAVYYCAADPGYYCAGEVRYAGSLYDYWGQGTQVTVSS
notes: Recombinant antibody from a eukaryotic expression vector (293F); also called A-A7; A-A07-VHH
Consider B8, for which, in test [4], the “ADCC EC50” value was determined as 0.0186 µg/mL. In addition, the EC50 is 0.399 µg/mL in test [5], 0.0559 µg/mL in test [1] and 2.8 µg/mL in test [2]. Moreover, the “ELISA OD” value in test [7] was 4.39; in test [8], 0.2. For the same molecule, the Kd in test [6] came to 6.67 nM.

B9: A07-HM6 (VHH)
VHH: EVQLLESGGGLVQPGGSLRLSCAVSGFTLDYYAIGWFRQAPGKGLEGVSCISGSDGRTAYGDSVKGRFTISKDNAKNTVYLQMNSLRAEDTAVYYCAADPGYYCAGEVRYAGSLYDYWGQGTLVTVSS
Consider B9, for which the “ADCC EC50” value in test [4] was determined as 0.0047 µg/mL. Besides, in test [5], the EC50 is 0.772 µg/mL. In addition, in test [6], the Kd was 14.6 nM.

B10: D04 (VHH)
VHH: QVQLVESGGGLVQPGGSLRLSCAASGFTFSSSAVSWARLTPGKRLEWVSAIASDGSTYYADSMQGRFTISRDNAKNTVYLQMNSLKPEDTAVYYCAIPRDGLVPVFGIDYWGQGTQVTVSS
Take B10: the EC50 in test [1] was found to be 0.0281 µg/mL.

B11: A05 (VHH)
VHH: QVQLVESGGGLAQPGGSLRLSCAASGFTFSIYAMSWARQAPGKGLEWVSGIYSDSSYTYYADSVKGRFTISRDNAKNTLYLQMNSLKPEDTALYYCLKARGSGSYYPFDDYRGQGTQVTVSS
For the molecule B11, the results for the EC50 in test [1] and in test [2] were 0.0177 µg/mL and 1.59 µg/mL, respectively.

Source of the values: patent US20260070994A1 (PASSION TECHNOLOGY ZHUHAI PARTNERSHIP LIMITED PARTNERSHIP, published 2026).
